{
  "source": "paper PMC5783996",
  "target": "Botryococcus braunii light-harvesting complexes (BB LHCII), apoproteins of the trimeric fraction B3 (Botryococcus braunii (endogenous in strain CCALA778 thylakoids))",
  "assay": "sucrose density gradient ultracentrifugation; thylakoids solubilised with 1% α-DM (also OG) at room temperature, complexes separated on a sucrose density gradient; bands assigned by position (MW)",
  "data": [
    {"substance": "Botryococcus braunii light-harvesting complexes (BB LHCII), apoproteins of the trimeric fraction B3", "values": [
      {"measurement": "stoichiometry N", "value": 3}
    ]}
  ]
}
